The series in a line: yeast display, Sf9 membrane polyspecificity reagent, FACS + sequencing; frameworks hold sequencing errors. The method in brief:
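Nanobodies from a synthetic yeast display library (Saccharomyces cerevisiae BJ5465), induced 36–48 hours with galactose, were stained 1 hour at 4 °C with 10% biotinylated, detergent-solubilized Sf9 membrane reagent, enriched on streptavidin microbeads, then FACS-sorted. Anti-HA (expression) and streptavidin (reagent binding) fluorescence set low and high (top ~1%) gates. Polyreactivity labels come from the gate of origin. Genes were colony-PCR amplified, MiSeq 2 × 250 sequenced and filtered by CDR length.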
Turning to “QVQLVESGGGLVQAGGSLRLSCAASGRTFTRYAMGWYRQAPGPERELVAASRWSGTRTYYAVSVKGRITISRDNAKNTVDLQMNSLTPEDTAVYYCAARDRVYPDYGYWGQGTQVTVSS”, the “polyreactivity (PSR sort gate)” value is reported as “high polyreactivity”. As for “QVQLVESGGGLVQAGGSLRLSCAASGRTFTRYTMGWYRQAPGKERELVAAISYSGGSTYYADSVKGRFTISRDNAKNTVYLQMNSLKPEDTAVYYCAAASVRWPGYDYWGQGTQVTVSS”, the “polyreactivity (PSR sort gate)” value is recorded as “high polyreactivity”.

“QVQLVESGGGLVQAGGSLRLSCAASGRTFTRYTMGWYRQAPGKERELVAAITRGGSTYADSVKGRFTISRDNAKNTVYLQMNSMKPEDTAVYYCAAYWGFYPWRAYPYDYWGQGTQVTVSS”: the “polyreactivity (PSR sort gate)” value is given as “high polyreactivity”. To “QVQLVESGGGLVQAGGSLRLSCAASGRTFTRYTSGSYRPAPGKERELVAAIRYSGGSTYYADSVKGRFTISGDNAKNTVYLQMNSLKPEDTAVYYCAARSYYYGFLYRYDYWGQGTQVTVSS” belongs “low polyreactivity”; to “QVQLVESGGGLVQAGGSLRLSCAASGRTFTSNAMGWYRQAPGKERELVAAISNRGTRTYYADSVKGRFTISRDNAKNTVYLQMNSLKPEDTAVYYCAASERDQRFKHYYWGQGTQVTVSS”, “high polyreactivity”; to “QVQLVESGGGLVQAGGSLRLSCAASGRTFTSYAIGWYRQAPGKERELVAAISGSGSRTKYADSVKGRFTISRDNAKNTVYLQMNSLKPEDTAVYYCNADYRHRHDYWGQGTQVTVSS”, “high polyreactivity”. To “QVQLVESGGGLVQAGGSLRLSCAASGRTFTSYAMGWYRQAPGKERELVAAISGNGVTTYYADSVKGRFTISRDNAKNTLYLQINSLKPEDTAVYYCAAGQRRFGYYYWGQGTQVTVSS” belongs “high polyreactivity”; to “QVQLVESGGGLVQAGGSLRLSCAASGRTFTSYAMGWYRQAPGKERELVAAISGSGSRTYYADSVKGRFTISRDNAKNTVYLQMNSLKPEDTAVYYCAVSYTTYYHRYYYWGQGTQVTVSS”, “high polyreactivity”.

Turning to “QVQLVESGGGLVQAGGSLRLSCAASGRTFTVYAMGWYRQAPGKEREFVAAITERGGSTYYADSVKGRFTISRDNAKNTVYLQMNSLKPEDTAVYYCAAVYYWRPGWYVRFDYWGHGTQVTVSS”, the “polyreactivity (PSR sort gate)” value is listed as “low polyreactivity”. Next, “QVQLVESGGGLVQAGGSLRLSCAASGRTFTVYGMGWYRQAPGKEREFVATISRRGGRTYYADSVKGRFTISRDNAKNTVYLHMNSLKPEDTAVYYCNADIGTYVRSGGGDFWGQGTQVTVSS”: “low polyreactivity”; “QVQLVESGGGLVQAGGSLRLSCAASGRTFTWYAMGWYRQAPGKERELVAAISKSGGSTYYADSVKGRFTISRDNAKNTVYLQMNSLKPEDTAVYYCNADFYGYFLGYGYWGQGTQVTVSS”: “low polyreactivity”. In the case of “QVQLVESGGGLVQAGGSLRLSCAASGRTFTYNAMGWYRQAPGKERELVAAISRSGGRTYYADSVKGRFTISRDNAKNTVYLQMNSLKPEDTAVYYCNTDGYYTTAKYGYWGQGTQVTVSS”, the “polyreactivity (PSR sort gate)” value is recorded as “high polyreactivity”.

On to “QVQLVESGGGLVQAGGSLRLSCAASGRTFTYNAMGWYRQAPGKERELVATINTSGASTSYADSVKGRFTISRDNAKNTVYLQMNCLKPEDTAVYYCNRDRRYYHRFDYWGQGTQVTVSS”, for which the “polyreactivity (PSR sort gate)” value is on record as “low polyreactivity”. Next, “QVQLVESGGGLVQAGGSLRLSCAASGRTFTYNVMGWYRQAPGKERELVAAITSGGTNYADSVKGRFTISRDNAKNTVYLQMNSLKPEDTAVYYCATDYYDDVTIGYDYWGQGTQVTVSS”: “low polyreactivity”; “QVQLVESGGGLVQAGGSLRLSCAASGRTFTYYAMGWYRQAPGKERELVAAIRYTGGSTHYADSVKGRFTISRDNAKNTVYLQMNSLKPEDKAVYYCAARRAYTRGGTVYFGYYYWGQGTQVTVSS”: “high polyreactivity”. On to “QVQLVESGGGLVQAGGSLRLSCAASGRTFTYYAMGWYRQAPGKERELVAAISNGGRTYYADSVKGRFTISRDNAKNTVYLQMNSLKPEDTAVYYSAAYLSPKGRGFGSWGQGTQVTVSS”, for which the “polyreactivity (PSR sort gate)” value was “high polyreactivity”. Next, “QVQLVESGGGLVQAGGSLRLSCAASGRTFTYYAMGWYRQATGKERELVAAISRGGGSTHYADSVKGRFTISRDNAKNTVYFQMNSLKPEDTAVYYCAARYSTRYKYDYWGQGTQVTVSS”: “high polyreactivity”; “QVQLVESGGGLVQAGGSLRLSCAASGRTFTYYAMGWYRQGPGKESELVAAITSGGRTYYADSVKGRFTISRDNAKNTVYLELNSLKPDDTAVYYCADRRIRDYYRSYDYWGQGTQGTVSS”: “high polyreactivity”; “QVQLVESGGGLVQAGGSLRLSCAASGRTFTYYGKGWYRQAPGKERELVAAITERGDSTYYADSVKGRFTISRDNAKNTVYLQMNSLKPEDTAVYYCAAAEHLTRPTSPTQDGDHWGQGTQVTVSS”: “low polyreactivity”. For “QVQLVESGGGLVQAGGSLRLSCAASGRTFTYYSMGWYRQAPGKESELVARISIRGTNTYYADSLKGRFTISRDNAKNTVYLQMTSLKPEDTAVYYCAKYYYTSIVGYDSWGQGTQVTVSS”, the “polyreactivity (PSR sort gate)” value was “low polyreactivity”. Take “QVQLVESGGGLVQAGGSLRLSCAASGRTFVDYDMGWYRQAPGKERELVADINSGGSAYYADSVKGRFTISRDNAKNTVYLQMNSLKPEDTAVYYCAASYYGDNKYDYWGQGTQVTVSS”: the “polyreactivity (PSR sort gate)” value is reported as “high polyreactivity”.

Take “QVQLVESGGGLVQAGGSLRLSCAASGRTFVFNAMGWYSPAPGKERDLVAGISGSGGSTYYADSVKGRFTISRDNAKNTVYLQMNSLKPEDTAVYYCATKFPRKELDQDSVSGLGYWGLGTQVTVSS”: the “polyreactivity (PSR sort gate)” value is listed as “low polyreactivity”.

On to “QVQLVESGGGLVQAGGSLRLSCAASGRTFVFYGMGWYRQAPGKEREFVAAITRRGGSTYYADSVKGRFTISRDNAKNTVYLQMNSLKPEDTAVYYCAAGYSSRYRGGLDYWGQGTQVTVSS”, for which the “polyreactivity (PSR sort gate)” value is given as “high polyreactivity”. Next, “QVQLVESGGGLVQAGGSLRLSCAASGRTFVIYVMGLYRQAPGKERELVARISGSDGGTYYADSVKGRFTISRDNAKNTVYLQMNSLKPEDTAVYYCATARYPVAGLMDYWGQGTQVTVSS”: “low polyreactivity”; “QVQLVESGGGLVQAGGSLRLSCAASGRTFVKNAMGWYIQAPGKERELVAAISYRGGSTYYADSVKGRFTISRDNAKNTVYLQMNSLKPEDTAVYYCAAQYLYYRYGGFGYWGQGTQVTVSS”: “high polyreactivity”; “QVQLVESGGGLVQAGGSLRLSCAASGRTFVLYAMGWYRQAPGKERELVAAIRQSDVSTYYADSVKGRFTISRDNAKNTVFLQMNSLKPEDTAVFYCAARNRYRRRYYYWGQGTQVTVSS”: “high polyreactivity”. On to “QVQLVESGGGLVQAGGSLRLSCAASGRTFVNNAMGRYREAPGKERELVAAITTSAGSTYYADSVKGRFTISRDNAKNTVYLQMNSLNPEDTAVYYCAAVVWKKRYFDLEYWGQGTQVTVSS”, for which the “polyreactivity (PSR sort gate)” value is “low polyreactivity”. Regarding “QVQLVESGGGLVQAGGSLRLSCAASGRTFVNNAMGWYRQAPGKERELVASIRYIGGSTYYADSVKGRFTISRDNEKNTVYLQMNSLKPEDTAVYYCAALAGRRPYDYWGQGTQVTVSS”, the “polyreactivity (PSR sort gate)” value is recorded as “high polyreactivity”. Next, “QVQLVESGGGLVQAGGSLRLSCAASGRTFVNYAMGWYRQAPGKERELVAAISGGGGTNYADSVKGRFTISRDNAKNTVYLQMNSLKPEDTAVYYCAADTNGYEFDYWGQGTQVTVSS”: “low polyreactivity”; “QVQLVESGGGLVQAGGSLRLSCAASGRTFVPNAMGWYRQAPGKERELVAAISWSGDSTYYADSVKGRFTISRDNAKNTVYLQMNSLKPEDTAVYYCAARYEFFYKAFDVDSWGQGTQVTVSS”: “low polyreactivity”.

The values are drawn from the nanobody polyreactivity screen of Harvey et al. (2022).
